B1: hu.Ab3.H1L1 (antibody, human IgG1, kappa, V domains shown)
VH: EQQLVESGGGLVQPGGSLRLSCAVSGFSLSSYAMSWVRQAPGKGLEWIGVISASGRIIYATWAKGRFTISKDSAKTSVYLQMNSLRDEDTAVYFCARGVPSYSLVMSDWGPGTTVTVSS
VL: EPVMTQSPATLSVSPGERATLSCQASQSISNALAWYQQKPGQPPRLLIYEVSKVASGVPARFSGSGSGTEFTLTISSLQSEDFAVYYCQSAYYGNSYVWGAFGQGTKVEIKR
B2: mouse surrogate anti-CCR8 mAb (antibody, mouse IgG2a, kappa, V domains shown)
VH: QSVKESGGRLVTPGGSLTLTCTVSRIDLNEYSMAWVRQAPGKGLEWIGYIDAGSGSAYYASWAKGRFTISKTSSTTVDLEMTTLTTEDTATYFCARDVYPGYTTGTNLGLWGPGTLVTVSS
VL: AAVLTQTPASVSAAVGGTVSISCRSSKSVYSNYLSWYQQKPGQPPKLLIYRASTLTPGVPSRFKGSGSGTQFSLTIRDVQSADAGSYYCAGGYSSGSDNTFGGGTKLEIKR
notes: Chimeric rabbit-derived murine IgG2a; also called Anti-mCCR8; anti-murine CCR8 antibody
B3: hu.Ab4.H1L1 (antibody, human IgG1, V domains shown)
VH: EQQLLESGGGLVQPGGSLRLSCAVSGFSLSNYAMIWVRQAPGKGLEWVGTISLGGYTYYANWAKGRFTISKDSSKTTVYLQMNSLRAEDTAVYFCARARWSTDSAIYTYAFDPWGPGTLVTVSS
VL: DYQMTQSPSSLSASVGDRVTITCQASQSISSYLSWYQQKPGKRPKLLIYKASTLASGVPSRFSGSGSGTDFTLTISSLQPEDFATYYCQQGYTSSNIDNIFGGGTKVEIK
B4: hu.Ab4.H12L3 (antibody, human IgG1, kappa)
heavy: not shown
light: DYQMTQSPSSLSASVGDRVTITCQASQSISSYLSWYQQKPGKAPKLLIYKASTLASGVPSRFSGSGSGTDFTLTISSLQPEDFATYYCQQGYTSSNIDNIFGGGTKVEIKRTVAAPSVFIFPPSDEQLKSGTASVVCLLNNFYPREAKVQWKVDNALQSGNSQESVTEQDSKDSTYSLSSTLTLSKADYEKHKVYACEVTHQGLSSPVTKSFNRGEC
B5: Afuc.hu.Ab4.H12L3 (antibody, human IgG1, kappa)
heavy: not shown
light: B4 light
modifications: afucosylated Fc N-glycan (position Asn 299 as printed); about 80% to about 95% afucosylation
notes: also called afucosylated hu.Ab4.H12L3; Afuc.Ab4.H12L3
B6: hu.Ab5.H1L1 (antibody, human IgG1, V domains shown)
VH: EQQLLESGGGLVQPGGSLRLSCAVSGIDLSTYAMGWVRQAPGKGLEWIGLIHRSGRTYYATWAKGRFTISKDSSKTTVYLQMNSLRAEDTAVYFCTRSYPDYSATASIWGPGTTVTVSS
VL: DIQVTQSPSSLSASVGDRVTITCQASENIANALAWYQQKPGKPPKFLIYGASNLASGVPSRFSGSGSGTDFTFTISSLQPEDIATYYCQQAYYGNSFVEGTFGGGTKVEIK
B7: Afuc.hu.Ab5.H13L1 (antibody, human IgG1, kappa)
heavy: not shown
light: DIQVTQSPSSLSASVGDRVTITCQASENIANALAWYQQKPGKPPKFLIYGASNLASGVPSRFSGSGSGTDFTFTISSLQPEDIATYYCQQAYYGNSFVEGTFGGGTKVEIKRTVAAPSVFIFPPSDEQLKSGTASVVCLLNNFYPREAKVQWKVDNALQSGNSQESVTEQDSKDSTYSLSSTLTLSKADYEKHKVYACEVTHQGLSSPVTKSFNRGEC
modifications: afucosylated Fc N-glycan (position Asn 299 as printed); about 80% to about 95% afucosylation
notes: also called afucosylated hu.Ab5.H13L1; Afuc.Ab5.H13L1
B8: hu.Ab5.H13L1 (antibody, human IgG1, kappa)
heavy: not shown
light: B7 light
notes: Fucosylated human IgG1 kappa; also called Ab5 variant; huCCR8 antibody hu.Ab5.H13L1 (hIgG1)

Assays:
[1] = target: T1, human CCR8 (human, UniProt P51685 1-355); assay: cell-based or functional assay
[2] = target: T2, mouse CCR8 (mouse, UniProt P56484 1-353); assay: assay not described ('in vitro assays')
T2 construct: format of the KD assay of the anti-murine antibody is not described; also called mCCR8; murine CCR8
T2 sequence: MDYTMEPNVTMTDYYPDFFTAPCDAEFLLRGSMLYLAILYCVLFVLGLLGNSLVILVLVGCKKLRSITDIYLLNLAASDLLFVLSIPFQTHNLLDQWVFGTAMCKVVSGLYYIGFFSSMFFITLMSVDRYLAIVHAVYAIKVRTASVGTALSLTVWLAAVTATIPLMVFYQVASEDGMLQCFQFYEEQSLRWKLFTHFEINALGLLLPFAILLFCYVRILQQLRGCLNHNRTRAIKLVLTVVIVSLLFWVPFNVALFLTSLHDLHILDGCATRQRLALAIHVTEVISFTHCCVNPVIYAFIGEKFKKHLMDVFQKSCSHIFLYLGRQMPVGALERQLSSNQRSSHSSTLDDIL

[3] = target: T1, human CCR8; assay: cell-based or functional assay; remark: listed apart in the source
[4] = target: T1, human CCR8; assay: cell-based or functional assay; remark: listed apart in the source
[5] = target: T1, human CCR8; assay: cell-based or functional assay; remark: listed apart in the source
[6] = target: T3, human Fc gamma receptor IIIa F158, GST fusion (human, UniProt P08637 17-208); assay: ELISA, captured GST-FcgR3a
T3 construct: extracellular domain; also called GST-FcgR3a.F158; FcgR3a.F158 protein; not shown: Gly-6xHis-glutathione S-transferase (GST) tag at the C-terminus
T3 sequence (P08637 17-208): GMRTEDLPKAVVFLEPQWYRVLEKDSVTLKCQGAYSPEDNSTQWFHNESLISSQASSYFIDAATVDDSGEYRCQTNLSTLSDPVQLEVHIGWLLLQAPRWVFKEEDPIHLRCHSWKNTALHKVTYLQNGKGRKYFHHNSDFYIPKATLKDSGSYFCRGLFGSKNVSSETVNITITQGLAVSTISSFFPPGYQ
Description: (§1) Briefly, an anti-GST antibody was coated on Nunc MAXISORP™ plates. GST-FcgR3a.V158 and GST-FcgR3a.F158 were captured at 500 ng/mL. Plates were then washed and then serially diluted anti-CCR8 antibodies starting at 100 μg/mL were incubated on the plate for 1 hour at room temperature. Plates were washed and bound antibody was detected by an HRP-conjugated anti-human IgG secondary antibody. Absorbance at 450 nm was measured by a plate reader. The data were fitted using a 4-parameter logistic curve in SOFTM^AX® Pro.

[7] = target: T4, human Fc gamma receptor IIIa V158, GST fusion (human, UniProt P08637 17-208); assay: ELISA, captured GST-FcgR3a
T4 construct: extracellular domain; also called GST-FcgR3a.V158; FcgR3a.V158 protein; not shown: Gly-6xHis-glutathione S-transferase (GST) tag at the C-terminus
T4 sequence (P08637 17-208 F176V): as the sequence (P08637 17-208) above, with F160V counted along it
Description: as §1

[8] = target: T5, cynomolgus monkey CCR8 (cynomolgus monkey, UniProt O97665 1-356 (rhesus entry)); assay: competition of unlabelled antibody with a fixed concentration of the 125I-labelled same antibody on CHO cells stably expressing cyno CCR8 (CHO-cynoCCR8), filter plates, gamma counting
T5 construct: On CHO cells stably expressing cyno CCR8 or on cyno blood Treg cells; also called cyno CCR8; cynoCCR8
T5 sequence (O97665 other isoform, or with tags, fused parts or gaps): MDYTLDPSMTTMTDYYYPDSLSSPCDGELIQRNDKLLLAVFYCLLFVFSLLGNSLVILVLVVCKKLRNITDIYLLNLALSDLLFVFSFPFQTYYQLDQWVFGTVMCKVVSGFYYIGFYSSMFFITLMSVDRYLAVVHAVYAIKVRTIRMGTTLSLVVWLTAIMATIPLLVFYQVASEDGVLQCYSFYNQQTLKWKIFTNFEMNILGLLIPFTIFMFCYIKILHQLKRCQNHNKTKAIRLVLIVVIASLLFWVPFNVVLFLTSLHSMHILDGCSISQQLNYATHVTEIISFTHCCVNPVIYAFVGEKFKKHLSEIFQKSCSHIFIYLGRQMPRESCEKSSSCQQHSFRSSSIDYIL

Binder | ADCC EC50 (calcein release; NK-92_F158 effector cells, CHO/hCCR8.Gna15 target cells) [1] | ADCP EC50, macrophages of donor HR/FF (FIG. 14A) [4] | ADCP EC50, macrophages of donor RR/FF (FIG. 14B) [4] | ADCP EC50, macrophages of donor RR/VF (FIG. 14D) [4] | other results
B1 | 0.02 nM | – | – | – | –
B2 | – | – | – | – | Kd [2]: 0.218 nM
B3 | 0.08 nM | – | – | – | IC50 of CCL1 blocking (Ca2+ influx, CHO/hCCR8.Gna15 cells, 20 nM CCL1) [3]: 57.9 nM
B4 | – | 0.35 nM | 0.81 nM | 0.41 nM | IC50 of ligand blocking (Ca2+ influx, 20 nM CCL1) [5]: 57.9 nM
B5 | – | 0.025 nM | 0.12 nM | 0.079 nM | ADCP EC50, macrophages of donor HR/FF (FIG. 14E) [4]: 0.035 nM; ADCP EC50, macrophages of donor HR/VF (FIG. 14C) [4]: 0.017 nM; fold increase in binding potency over the fucosylated counterpart [6]: ~10 fold; fold increase in binding potency over the fucosylated counterpart [7]: ~10 fold
B6 | 0.02 nM | – | – | – | –
B7 | – | 0.017 nM | 0.2 nM | 0.5 nM | ADCP EC50, macrophages of donor HR/FF (FIG. 14E) [4]: 0.022 nM; ADCP EC50, macrophages of donor HR/VF (FIG. 14C) [4]: 0.01 nM; fold increase in binding potency over the fucosylated counterpart [6]: ~10 fold; fold increase in binding potency over the fucosylated counterpart [7]: ~10 fold
B8 | – | – | – | – | IC50 (read off the curve) [8]: ~40 pM
